# Data published in paper PMC10034513.
# Experiments:
# [1] = biological target: P74-26 tail tube protein (TTP), gp93, recombinant wild type (bacteriophage P74-26); test: SEC-MALS; 100 μl at 1 mg/ml, filtered through 0.22 μm before loading; 50 mM Tris pH 8.0, 150 mM KCl, 5 mM βME, 5% glycerol; run at room temperature
# [2] = biological target: P74-26 tail tube protein (TTP), gp93, recombinant wild type (bacteriophage P74-26); test: light scattering of tube assembly; filtered TTP at ~1 mg/ml, scattering at 350 nm over time; wild type at 4, 20, 25, 37 and 50 °C and a concentration series at 37 °C; variants at 20 °C
# [3] = biological target: P74-26 tail tube protein (TTP), gp93, in tails of purified virions (bacteriophage P74-26); test: cryo-EM structure; tails of purified P74-26 virions, segmented helical reconstruction (C3, rise 40.25 Å, twist -44.75°)
# [4] = SEC-MALS; 100 μl at 1 mg/ml, filtered through 0.22 μm before loading; 50 mM Tris pH 8.0, 150 mM KCl, 5 mM βME, 5% glycerol; run at room temperature
# [5] = biological target: P74-26 TTP Q167A variant (bacteriophage P74-26); test: as above
# [6] = biological target: P74-26 TTP L229A variant (bacteriophage P74-26); test: light scattering of tube assembly; filtered TTP at ~1 mg/ml, scattering at 350 nm over time; wild type at 4, 20, 25, 37 and 50 °C and a concentration series at 37 °C; variants at 20 °C
substance,measurement,setting,value
"P74-26 tail tube protein (TTP), gp93, recombinant wild type (natural protein)",mass fraction of the hexamer peak,[1],6%
same,stoichiometry N,[1],6
same,fast-phase tube growth rate at 37 °C relative to the 20 °C rate (fold (× the 20 °C rate)),[2],68
same,fast-phase tube growth rate at 50 °C relative to the 20 °C rate (fold (× the 20 °C rate)),[2],3520
"P74-26 tail tube protein (TTP), gp93, in tails of purified virions (natural protein)",stoichiometry N,[3],3
"P74-26 tail tube protein (TTP), gp93, recombinant wild type",mass fraction of the monomer peak,[4],∼76% mass fraction
P74-26 TTP Q167A variant (natural protein),stoichiometry N,[5],3
P74-26 TTP L229A variant (natural protein),tube formation rate relative to WT (% of the WT rate),[6],10
